One substance from publication PMC3843485 can be followed below.

For this experiment, the target named is Pseudomonas aeruginosa cytoplasmic heme binding protein PhuS, apo form (Pseudomonas aeruginosa). Put plainly: crystal structure.

For orientation: stoichiometry N means the number of molecules, sites or subunits per partner or assembly. For the substance “Pseudomonas aeruginosa cytoplasmic heme binding protein PhuS, apo form (natural protein)”, the stoichiometry N turned out to be 2.
